Drawing on the Immune Epitope Database (IEDB), this text covers Kd for 5 sequences.

One experiment has as its target HLA-B*18:01. Nature of the experiment: IEDB peptide-MHC binding, purified MHC/direct/fluorescence; filed as Kd, often an IC50 or EC50 that approximates it; ≥ and ≤ were set here for values at or beyond the usual limits of such assays. Conditions: source organism: Entamoeba histolytica HM-1:IMSS.
A further experiment has as its target HLA-B*07:02. The description is as above.
For a further experiment, the target named is HLA-B*57:01. The experiment is described as above. Conditions: source organism: Entamoeba histolytica HM-1:IMSS.
A further experiment has as its target HLA-B*15:01. The experiment is described as above.
For another experiment, the target named is HLA-A*69:01. The experiment is described as above.
A further experiment addresses HLA-B*40:01. The description is as above.
The next experiment concerns the target HLA-B*58:01. Described as above.
A further experiment addresses HLA-A*02:01. The description is as above.
For experiment [1], the target named is HLA-A*29:02. The experiment is described as above. The conditions noted are these: source organism: Entamoeba histolytica HM-1:IMSS.
The target of the next experiment is HLA-A*30:01. The experiment is described as above.
Another experiment concerns the target HLA-B*44:02. The experiment is described as above.
A further experiment concerns the target HLA-A*01:01. The experiment is described as above.
In experiment [2] the target is HLA-A*29:02. Put plainly: IEDB peptide-MHC binding, purified MHC/competitive/fluorescence; filed as Kd, often an IC50 or EC50 that approximates it; ≥ and ≤ were set here for values at or beyond the usual limits of such assays. Conditions: source organism: Brucella canis ATCC 23365.
For a further experiment, the target named is HLA-B*27:05. Nature of the experiment: IEDB peptide-MHC binding, purified MHC/direct/fluorescence; filed as Kd, often an IC50 or EC50 that approximates it; ≥ and ≤ were set here for values at or beyond the usual limits of such assays.
A further experiment has as its target HLA-A*24:03. The experiment is described as above.
The target of the next experiment is HLA-A*03:01. Described as above.
The next experiment deals with HLA-A*26:01. Described as above.
Another experiment addresses HLA-B*08:01. The description is as above.
A further experiment concerns the target HLA-A*11:01. Described as above.
The target of a further experiment is HLA-A*31:01. The description is as above.
Where [3] appears, read: source organism: Entamoeba histolytica HM-1:IMSS.
[4] abbreviates: source organism: Rickettsia conorii.
The mark [5] stands for this setting: source organism: Rickettsia sibirica.
The mark [6] stands for this setting: source organism: Campylobacter jejuni.
The mark [7] stands for this setting: source organism: La Crosse virus.

As usually defined, the Kd is the free concentration of one partner at which half of the binding sites on the other are occupied at equilibrium, for simple one-to-one binding. As to ETMKPAAMV, the Kd with HLA-B*18:01 was at least 20 µM; with HLA-B*07:02 (setting [3]), at least 20 µM; with HLA-B*57:01 it was at least 20 µM; with HLA-B*15:01 (setting [3]) it was at least 20 µM; with HLA-A*69:01 (setting [3]) it was 0.0015 µM; with HLA-B*40:01 (setting [3]), at least 20 µM. Moreover, the Kd with HLA-B*58:01 (setting [3]), with HLA-A*02:01 (setting [3]), with HLA-A*29:02 [1], with HLA-A*30:01 (setting [3]), with HLA-B*44:02 (setting [3]) and in the experiment with HLA-A*01:01 (setting [3]) was at least 20 µM each time.

As for QWALLPYLF, the Kd in the experiment with HLA-A*29:02 [2] was at most 0.0001 µM.

RTGDIGCFK: the Kd is at least 20 µM in the experiment with HLA-B*27:05 (setting [4]); at least 20 µM with HLA-A*24:03 (setting [4]); at least 20 µM in the experiment with HLA-B*07:02 (setting [4]); 0.836 µM with HLA-A*03:01 (setting [5]); at least 20 µM in the experiment with HLA-B*15:01 (setting [4]); at least 20 µM with HLA-A*26:01 (setting [4]). Moreover, the Kd with HLA-A*69:01 (setting [4]) is at least 20 µM; in the experiment with HLA-B*40:01 (setting [4]), at least 20 µM; with HLA-B*58:01 (setting [4]), at least 20 µM; in the experiment with HLA-A*02:01 (setting [4]), at least 20 µM; with HLA-B*08:01 (setting [4]) it was at least 20 µM; with HLA-A*11:01 (setting [5]), 0.0688 µM. Besides, the Kd in the experiment with HLA-A*31:01 (setting [5]) is 0.223 µM; with HLA-A*30:01 (setting [5]) it was 0.0355 µM; in the experiment with HLA-B*44:02 (setting [4]), at least 20 µM; with HLA-A*01:01 (setting [4]), at least 20 µM.

With SFGAGTLAK, the Kd in the experiment with HLA-B*27:05 (setting [6]) is at least 20 µM; with HLA-A*24:03 (setting [6]) it was at least 20 µM; in the experiment with HLA-B*07:02 (setting [6]), at least 20 µM; in the experiment with HLA-A*03:01 (setting [6]), 1.97 µM; with HLA-B*15:01 (setting [6]), at least 20 µM; with HLA-A*26:01 (setting [6]) it was at least 20 µM. In addition, the Kd is at least 20 µM with HLA-A*69:01 (setting [6]); at least 20 µM with HLA-B*40:01 (setting [6]); at least 20 µM with HLA-B*58:01 (setting [6]); at least 20 µM with HLA-A*02:01 (setting [6]); at least 20 µM with HLA-B*08:01 (setting [6]); 0.383 µM with HLA-A*11:01 (setting [6]). The Kd with HLA-A*31:01 (setting [6]) is 3.9 µM; with HLA-A*30:01 (setting [6]), 0.0186 µM; with HLA-B*44:02 (setting [6]) it was at least 20 µM; with HLA-A*01:01 (setting [6]), at least 20 µM.

On to YRKPSGGVF, for which the Kd is 0.232 µM with HLA-B*27:05 (setting [7]); 4.78 µM with HLA-A*24:03 (setting [7]); 6.06 µM in the experiment with HLA-B*07:02 (setting [7]); at least 20 µM in the experiment with HLA-A*03:01 (setting [7]); 0.797 µM in the experiment with HLA-B*15:01 (setting [7]); at least 20 µM with HLA-A*26:01 (setting [7]). The Kd with HLA-A*69:01 (setting [7]) is at least 20 µM; in the experiment with HLA-B*40:01 (setting [7]) it was at least 20 µM; with HLA-B*58:01 (setting [7]), at least 20 µM; with HLA-A*02:01 (setting [7]) it was at least 20 µM; in the experiment with HLA-B*08:01 (setting [7]), 0.166 µM; with HLA-A*11:01 (setting [7]) it was at least 20 µM. Also, the Kd in the experiment with HLA-A*31:01 (setting [7]), with HLA-A*30:01 (setting [7]), in the experiment with HLA-B*44:02 (setting [7]) and with HLA-A*01:01 (setting [7]) was at least 20 µM throughout.
